Experimental findings from doi:10.1101/2023.11.14.566657 (bioRxiv, 2023) are described below.

The target in data set [1] is T1, RAD52 wild type (human, UniProt P43351 1-418).
T1 sequence: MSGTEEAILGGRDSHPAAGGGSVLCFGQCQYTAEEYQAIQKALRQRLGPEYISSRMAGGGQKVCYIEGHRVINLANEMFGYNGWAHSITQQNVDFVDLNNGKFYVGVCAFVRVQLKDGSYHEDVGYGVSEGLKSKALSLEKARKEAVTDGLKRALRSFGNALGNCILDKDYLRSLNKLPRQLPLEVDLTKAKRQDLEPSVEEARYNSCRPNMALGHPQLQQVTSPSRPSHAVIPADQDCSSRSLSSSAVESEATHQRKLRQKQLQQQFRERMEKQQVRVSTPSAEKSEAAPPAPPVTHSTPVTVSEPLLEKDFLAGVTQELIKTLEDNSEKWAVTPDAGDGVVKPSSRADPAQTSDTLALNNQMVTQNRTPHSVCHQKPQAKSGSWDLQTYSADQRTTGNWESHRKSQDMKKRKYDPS
Nature of the data set: mass photometry.

For the next data set, the target named is T2, RAD52 IBD (human, UniProt P43351 1-418, K152A;R153A).
T2 sequence: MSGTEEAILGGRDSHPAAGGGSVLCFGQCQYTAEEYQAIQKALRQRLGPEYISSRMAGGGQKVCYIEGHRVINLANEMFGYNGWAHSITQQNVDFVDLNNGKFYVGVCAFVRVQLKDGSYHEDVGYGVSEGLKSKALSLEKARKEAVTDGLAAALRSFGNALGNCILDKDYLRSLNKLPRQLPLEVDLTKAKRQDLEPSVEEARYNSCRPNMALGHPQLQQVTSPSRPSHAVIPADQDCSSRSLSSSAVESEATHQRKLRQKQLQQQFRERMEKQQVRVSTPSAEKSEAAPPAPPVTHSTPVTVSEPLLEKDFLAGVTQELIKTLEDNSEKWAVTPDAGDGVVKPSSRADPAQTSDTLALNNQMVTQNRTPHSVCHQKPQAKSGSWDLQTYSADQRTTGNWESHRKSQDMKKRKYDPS
In words: mass photometry.

The next data set deals with RPA (UniProt P27694;P15927;P35244 1-616;1-270;1-121). Nature of the data set: mass photometry.
Chain of RPA (P27694 whole entry, chain 1 of 3): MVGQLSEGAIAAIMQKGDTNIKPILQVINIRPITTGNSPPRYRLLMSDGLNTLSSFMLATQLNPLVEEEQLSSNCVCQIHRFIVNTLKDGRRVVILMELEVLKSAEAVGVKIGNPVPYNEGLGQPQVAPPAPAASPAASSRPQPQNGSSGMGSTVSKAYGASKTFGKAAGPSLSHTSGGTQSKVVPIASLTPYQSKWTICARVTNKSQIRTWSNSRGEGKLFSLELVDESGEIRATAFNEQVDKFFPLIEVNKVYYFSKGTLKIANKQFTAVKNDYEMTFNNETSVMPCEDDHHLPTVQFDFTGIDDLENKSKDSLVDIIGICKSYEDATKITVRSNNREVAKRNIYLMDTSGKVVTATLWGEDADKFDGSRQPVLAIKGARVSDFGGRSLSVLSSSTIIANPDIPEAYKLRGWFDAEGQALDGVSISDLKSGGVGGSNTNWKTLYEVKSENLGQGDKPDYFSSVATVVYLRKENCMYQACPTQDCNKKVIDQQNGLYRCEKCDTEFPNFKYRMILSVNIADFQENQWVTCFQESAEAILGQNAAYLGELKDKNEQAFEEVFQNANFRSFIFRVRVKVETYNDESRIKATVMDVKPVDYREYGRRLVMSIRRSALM
Chain of RPA (P15927 whole entry, chain 2 of 3): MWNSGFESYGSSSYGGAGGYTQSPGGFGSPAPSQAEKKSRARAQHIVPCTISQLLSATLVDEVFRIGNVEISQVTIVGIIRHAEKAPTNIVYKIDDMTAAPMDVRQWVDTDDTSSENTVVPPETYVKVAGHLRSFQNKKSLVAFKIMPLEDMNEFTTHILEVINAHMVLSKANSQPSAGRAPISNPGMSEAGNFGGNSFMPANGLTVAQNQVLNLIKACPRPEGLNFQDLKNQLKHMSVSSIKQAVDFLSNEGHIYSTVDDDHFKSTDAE
Chain of RPA (P35244 whole entry, chain 3 of 3): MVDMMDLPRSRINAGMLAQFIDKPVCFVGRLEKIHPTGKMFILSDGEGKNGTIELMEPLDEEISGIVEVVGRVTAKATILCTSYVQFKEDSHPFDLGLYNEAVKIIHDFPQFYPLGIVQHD
For another data set, the target named is T3, SMARCAL1 (UniProt Q9NZC9 1-954).
T3 sequence: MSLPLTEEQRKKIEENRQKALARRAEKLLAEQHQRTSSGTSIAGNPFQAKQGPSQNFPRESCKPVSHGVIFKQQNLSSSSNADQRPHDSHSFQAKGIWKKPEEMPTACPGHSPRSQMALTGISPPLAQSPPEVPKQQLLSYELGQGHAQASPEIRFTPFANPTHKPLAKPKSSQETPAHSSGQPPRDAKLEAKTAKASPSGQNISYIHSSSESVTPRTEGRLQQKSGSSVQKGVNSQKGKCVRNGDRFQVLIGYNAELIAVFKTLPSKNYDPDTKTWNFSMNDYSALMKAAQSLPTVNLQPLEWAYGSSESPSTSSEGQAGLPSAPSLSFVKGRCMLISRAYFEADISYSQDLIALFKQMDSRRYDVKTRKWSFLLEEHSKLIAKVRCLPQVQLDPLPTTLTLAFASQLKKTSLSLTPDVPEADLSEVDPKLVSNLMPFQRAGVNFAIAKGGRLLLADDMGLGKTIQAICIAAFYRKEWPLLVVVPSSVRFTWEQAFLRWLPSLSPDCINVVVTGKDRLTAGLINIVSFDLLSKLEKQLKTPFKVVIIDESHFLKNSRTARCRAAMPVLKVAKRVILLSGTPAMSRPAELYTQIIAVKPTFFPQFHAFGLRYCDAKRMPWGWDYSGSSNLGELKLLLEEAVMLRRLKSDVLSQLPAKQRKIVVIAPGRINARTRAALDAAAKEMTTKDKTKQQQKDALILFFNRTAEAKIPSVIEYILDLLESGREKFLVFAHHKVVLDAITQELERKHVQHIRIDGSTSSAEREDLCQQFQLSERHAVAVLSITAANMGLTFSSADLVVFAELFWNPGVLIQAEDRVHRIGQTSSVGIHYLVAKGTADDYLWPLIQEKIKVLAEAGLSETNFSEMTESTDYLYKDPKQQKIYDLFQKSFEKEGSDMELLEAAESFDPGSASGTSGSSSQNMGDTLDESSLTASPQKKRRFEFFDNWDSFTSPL
Nature of the data set: mass photometry.

Another data set addresses T4, RAD52 wild type;SMARCAL1 (human;human?, UniProt P43351;Q9NZC9 1-418;1-954, |).
T4 sequence 1: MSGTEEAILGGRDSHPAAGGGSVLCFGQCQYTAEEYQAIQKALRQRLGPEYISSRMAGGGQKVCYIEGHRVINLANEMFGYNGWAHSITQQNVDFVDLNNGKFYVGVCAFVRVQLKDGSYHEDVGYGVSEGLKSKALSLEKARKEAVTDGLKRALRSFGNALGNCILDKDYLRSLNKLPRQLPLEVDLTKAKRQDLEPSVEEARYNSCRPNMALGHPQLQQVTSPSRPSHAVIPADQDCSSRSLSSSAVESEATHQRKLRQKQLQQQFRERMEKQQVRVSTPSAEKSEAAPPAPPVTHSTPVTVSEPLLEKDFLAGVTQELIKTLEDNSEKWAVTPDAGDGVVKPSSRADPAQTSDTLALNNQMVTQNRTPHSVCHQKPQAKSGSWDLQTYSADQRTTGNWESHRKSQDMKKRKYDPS
T4 sequence 2: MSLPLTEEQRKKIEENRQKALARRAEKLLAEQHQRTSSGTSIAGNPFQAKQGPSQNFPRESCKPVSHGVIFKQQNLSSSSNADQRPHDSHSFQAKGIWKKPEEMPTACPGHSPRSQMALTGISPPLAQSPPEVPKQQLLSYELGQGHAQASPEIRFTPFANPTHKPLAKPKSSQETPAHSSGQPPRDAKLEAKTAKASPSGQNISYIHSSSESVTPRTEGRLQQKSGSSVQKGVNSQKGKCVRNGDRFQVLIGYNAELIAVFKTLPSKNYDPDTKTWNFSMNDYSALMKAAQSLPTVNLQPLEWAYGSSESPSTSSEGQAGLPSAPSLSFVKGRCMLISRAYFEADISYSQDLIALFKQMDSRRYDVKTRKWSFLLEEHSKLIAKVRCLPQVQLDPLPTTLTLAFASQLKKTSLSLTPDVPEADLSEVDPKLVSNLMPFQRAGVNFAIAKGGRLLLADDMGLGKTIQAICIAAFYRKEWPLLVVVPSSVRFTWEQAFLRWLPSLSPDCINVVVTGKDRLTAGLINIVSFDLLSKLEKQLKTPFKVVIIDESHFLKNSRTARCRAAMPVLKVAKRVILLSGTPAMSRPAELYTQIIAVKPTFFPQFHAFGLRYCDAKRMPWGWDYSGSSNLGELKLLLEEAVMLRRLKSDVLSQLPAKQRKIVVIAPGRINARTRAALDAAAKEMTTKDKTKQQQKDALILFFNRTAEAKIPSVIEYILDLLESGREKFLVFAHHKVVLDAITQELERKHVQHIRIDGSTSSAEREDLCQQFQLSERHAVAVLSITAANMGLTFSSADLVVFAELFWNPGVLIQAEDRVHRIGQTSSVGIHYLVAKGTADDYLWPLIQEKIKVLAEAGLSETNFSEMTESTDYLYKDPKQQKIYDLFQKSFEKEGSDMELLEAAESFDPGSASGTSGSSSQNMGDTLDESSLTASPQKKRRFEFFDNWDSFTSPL
Nature of the data set: mass photometry.

Another data set concerns the target RAD52 wild type;RPA (human;human?, UniProt P43351;P27694;P15927;P35244 1-418;1-616;1-270;1-121, |). In words: mass photometry.
Data set [2] concerns the target T1, RAD52 wild type. In words: P1 nuclease footprinting.
For data set [3], the target named is T1, RAD52 wild type. In words: P1 nuclease footprinting. The source holds these as a separate data set.
The data set “mass photometry” concerns the molecule itself. In words: mass photometry.

Chain of RAD52 wild type;RPA (P27694 whole entry, chain 2 of 3): as the sequence (P27694 whole entry, chain 1 of 3) above
Chain of RAD52 wild type;RPA (P15927 whole entry, chain 3 of 3): as the sequence (P15927 whole entry, chain 2 of 3) above
Chain of RAD52 wild type;RPA (P35244 whole entry, chain 4 of 3): as the sequence (P35244 whole entry, chain 3 of 3) above

B1: heterologous fork, 30 nt gap (#6/#2/#3/#4) (mixed)
DNA 1: GGTATATTCAACAGTTCAACGACGAATGTTTTTTTTTTTTTTTTTTTTTTTTTTTTTTCTTTTGAGGCAGGCATGGTAGC
DNA 2: GCTACCATGCCTGCCTCAAAAGTTCGTAATATGCTACACACTGGAGTACCGGCATTCGTCGTTGAACTGTTGAATATACC
DNA 3: GGTACTCCAGTGTGTAGCATATTACGAACTTTTGAGGCAGGCATGGTAGC
DNA 4: GCTACCATGCCTGCCTCAAAAG
Consider B1, for which the binding result in the data set with RAD52 wild type [1], with RAD52 IBD, with RPA, with SMARCAL1, with RAD52 wild type;SMARCAL1 and with RAD52 wild type;RPA was “binds” throughout.

B2: heterologous fork P1 assay (#5/#2/#3/#4) (mixed)
DNA 1: GGTATATTCAACAGTTCAACGACGAATGTTGTGCATAACGTCGCTCCGTAGCTATACGCTTTTGAGGCAGGCATGGTAGC
DNA 2: GCTACCATGCCTGCCTCAAAAGTTCGTAATATGCTACACACTGGAGTACCGGCATTCGTCGTTGAACTGTTGAATATACC
DNA 3: GGTACTCCAGTGTGTAGCATATTACGAACTTTTGAGGCAGGCATGGTAGC
DNA 4: GCTACCATGCCTGCCTCAAAAG
Turning to B2, in the data set with RAD52 wild type [2], the binding result is recorded as “binds”.

B3: homologous fork, 30 nt leading gap (#1/#2/#3/#4) (mixed)
DNA 1: GGTATATTCAACAGTTCAACGACGAATGTTGGTACTCCAGTGTGTAGCATATTACGAACTTTTGAGGCAGGCATGGTAGC
DNA 2: GCTACCATGCCTGCCTCAAAAGTTCGTAATATGCTACACACTGGAGTACCGGCATTCGTCGTTGAACTGTTGAATATACC
DNA 3: GGTACTCCAGTGTGTAGCATATTACGAACTTTTGAGGCAGGCATGGTAGC
DNA 4: GCTACCATGCCTGCCTCAAAAG
As for B3, in the data set with RAD52 wild type [3], the binding result is “binds”.

B4: 6xHis-tagged human RAD52 protein (wild type) (natural protein)
chain: MSGTEEAILGGRDSHPAAGGGSVLCFGQCQYTAEEYQAIQKALRQRLGPEYISSRMAGGGQKVCYIEGHRVINLANEMFGYNGWAHSITQQNVDFVDLNNGKFYVGVCAFVRVQLKDGSYHEDVGYGVSEGLKSKALSLEKARKEAVTDGLKRALRSFGNALGNCILDKDYLRSLNKLPRQLPLEVDLTKAKRQDLEPSVEEARYNSCRPNMALGHPQLQQVTSPSRPSHAVIPADQDCSSRSLSSSAVESEATHQRKLRQKQLQQQFRERMEKQQVRVSTPSAEKSEAAPPAPPVTHSTPVTVSEPLLEKDFLAGVTQELIKTLEDNSEKWAVTPDAGDGVVKPSSRADPAQTSDTLALNNQMVTQNRTPHSVCHQKPQAKSGSWDLQTYSADQRTTGNWESHRKSQDMKKRKYDPS
With B4, the “stoichiometry N” value in “mass photometry” came out at 10.
